Measurements as given in US20100190693A1.

What was measured:
[1] = molecular target: CBP (endogenous, HIT cells) (hamster); assay: cell-based or functional assay
KIX-VP16 = KIX-VP16 (UniProt Q92793); assay: cell-based or functional assay
KIX-VP16, sequence (Q92793 587-666): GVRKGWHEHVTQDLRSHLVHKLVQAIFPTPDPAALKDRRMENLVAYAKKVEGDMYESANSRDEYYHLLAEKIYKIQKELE

Row | GAL4 luciferase reporter in HIT cells, response to cAMP [1] | Substance | GAL4 luciferase reporter, mammalian two-hybrid assay in HIT cells, forskolin (KIX-VP16)
1 | 2.5 fold | GAL4-CREB M1 (Ser133Ala) (from UniProt P04386 1-147; P16220 1-341) | 
2 | 10 fold | GAL4-CREB, wild-type (from UniProt P04386 1-147; P16220 1-341) | 
3 |  | GAL4-KID (from UniProt P16220 87-146) | 20 fold
